US20030017502A1, “Methods involving the use of capG as a diagnostic marker and methods for the identification of capG modulators for the treatment and prevention of osteoporosis and related disease states” (priority 2001, published 2003)

Tested on: capG phosphorylation in RAW 264 cells
Assay: two-dimensional anti-phosphotyrosine Western blot of RAW 264 cell lysates with and without RANKL stimulation and inhibitor pretreatment
Assay type: cell-based, murine
Settings: RAW 264 cells stimulated with RANKL versus unstimulated control
Method: RAW 264 cells were obtained from Bristol Myers Squibb Department of Metabolic Diseases. The cells were grown in minimal essential media supplemented with 5% fetal bovine serum and 1% nonessential amino acids. For assay purposes, RAW 264 cells were starved for 5 hours in serum free media and then cultured in media containing 2% fetal bovine serum and RANK ligand. When inhibitors were used, as set forth below, the cells were pre-exposed to the inhibitor for one hour prior to RANKL stimulation. To identify RANKL specific tyrosine phosphorylation, RAW264 cells were treated with RANKL in the presence and absence of PP1 [4-Amino-5-(4-methylphenyl)-7-(t-butyl)pyrazolo[3,4-d]pyrimidine], a specific inhibitor of pp60src and wortmannin, a specific inhibitor of PI3kinase (Lakkakorpi, P. T. et al., “Phosphatidylinositol 3-kinase association with the osteoclast cytoskeleton, and its involvement in osteoclast attachment and spreading”. Exp. Cell Res. 237(2):296-306 (1997)), and cell lysates evaluated by proteomic analysis. Cell lysates were separated by two-dimensional electrophoresis in duplicate and transferred to PVDF membranes. […] 35(6):672-682 (2000), for subsequent proteomic analysis with the corresponding membrane analyzed by western blotting using anti-phosphotyrosine antibody. […] Maximal fluorescence incorporation occurred within 4 hours. […]

B1: RANKL: ligand recognized by receptor activator of NF-κB (RANK), leads to osteoclast differentiation (protein, UniProt O14788 140-317, looked up)
Tumor necrosis factor ligand …: IRAEKAMVDGSWLDLAKRSKLEAQPFAHLTINATDIPSGSHKVSLSSWYHDRGWAKISNMTFSNGKLIVNQDGFYYLYANICFRHHETSGDLATEYLQLMVYVTKTSIKIPSSHTLMKGGSTKYWSGNSEFHFYSINVGGFFKLRSGEEISIEVSNPSLLDPDQDATYFGAFKVRDID
  capG phosphorylation on stimulation: causes capG 102 phosphorylation
